Experimental data: patent publication US6028055A, “Receptor selective BNP” (Genetech, Inc., priority 1997, dated 2000)
Where no end group is shown, it is not given here.

Target: NPR-A IgG fusion (A-IgG) (Homo sapiens, UniProt P16066)
Assay: Phage ELISA measurement of phagemid affinities for NPR-A (A-IgG)
Details: ratio of mutant BNP phagemid binding affinity (EC50) to ANP phagemid binding to A-IgG; clones after 7 rounds of selection
Protocol: ELISA measurement of phagemic affinities for NPR-A and NPR-C: Phage ELISA were determined according to the method of Cunningham, B. C. et al., (1994) EMBO J., 13:2508-2515. Microtiter plates (Nunc, Maxisorb, 96 wells) were coated with purified A-IgG (at 1 μg/ml) in 50 mM sodium bicarbonate (pH 9.6) at 4 C overnight. The plates were blocked with 5% skimmed milk and washed with PBS, 0.01% TWEEN 20. Serial dilutions of competing receptor (A-IgG or C-IgG) and a subsaturating concentration of BNP-phagemid were added to wells in 100 μl of binding buffer (2% skim milk in PBS). After 2 h the plates were washed, and the bound phagemid stained with sheep anti-M13 HRP conjugate antibody (Pharmacia #279402-01),and assayed.
The amino acid residues found at each randomized position after 7 rounds of selection are shown in Table I. 8 segments of 3 to 5 amino acids randomized by primer mutagenisis are indicated at the top of the figure, immediately above the numbering for 32 amino acid human BNP, the sequence of which is shown in single letter amino acid code. Cysteine residues 10 and 26 were not mutagenized since they form a disulfide bond essential for binding to NPR-A. The substitution of K3 for D (Display BNP) is analogous to the acidic substitution R3D in ANP used to facilitate secretion expression in E. coli (Cunningham et al. (1994)). Individual clones were picked and the DNA sequence was determined. The number of times a particular sequence was observed is shown on the left. The ratio of mutant BNP phagemid binding affinity to ANP phagemid binding to A-IgG is shown on the right. Mutations that occur outside of the mutagenesis window result from polymerase misincorporation mutations that render a selection advantage to the mutant BNP phagemid (Cunningham et al. (1994)).

NPR-A IgG fusion (A-IgG), sequence (P16066 with tags, fused parts or gaps limits assumed): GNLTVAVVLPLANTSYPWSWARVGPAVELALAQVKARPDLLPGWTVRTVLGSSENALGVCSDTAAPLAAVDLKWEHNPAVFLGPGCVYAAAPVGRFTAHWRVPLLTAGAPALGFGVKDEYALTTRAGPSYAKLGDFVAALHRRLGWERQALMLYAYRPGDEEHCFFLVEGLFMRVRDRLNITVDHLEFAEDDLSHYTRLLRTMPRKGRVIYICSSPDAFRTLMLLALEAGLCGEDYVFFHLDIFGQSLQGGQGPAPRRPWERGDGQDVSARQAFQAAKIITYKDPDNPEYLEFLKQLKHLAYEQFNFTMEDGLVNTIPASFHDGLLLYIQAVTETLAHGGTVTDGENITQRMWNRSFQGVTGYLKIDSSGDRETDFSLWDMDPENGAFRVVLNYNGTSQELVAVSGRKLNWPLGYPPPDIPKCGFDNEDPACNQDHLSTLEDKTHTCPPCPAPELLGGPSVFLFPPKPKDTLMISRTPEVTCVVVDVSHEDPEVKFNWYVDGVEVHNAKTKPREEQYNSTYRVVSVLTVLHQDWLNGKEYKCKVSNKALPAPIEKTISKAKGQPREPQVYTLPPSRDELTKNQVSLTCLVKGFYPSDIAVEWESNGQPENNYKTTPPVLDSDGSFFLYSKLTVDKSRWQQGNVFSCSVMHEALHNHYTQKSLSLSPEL

Row | Substance | Binding to NPR-A ratio of mutant/hANP
1 | hBNP Lys14Asn, Ser19Arg, Ser20His, Ser21Leu (SPKMVQGSGCFGRNMERIRHLSGLGCKVLRRH; ends and bridges not checked; cysteine pairing not given here) [N R H L, measured as BNP-phagemid clone (Display BNP, K3D)] | 1.0
2 | hBNP Gly23Leu, Leu24Trp, Gly25Arg (SPKMVQGSGCFGRKMERISSSSLWRCKVLRRH; ends and bridges not checked; cysteine pairing not given here) [L W R, measured as BNP-phagemid clone (Display BNP, K3D)] | 2.0
3 | hBNP Lys14Gln, Ser19Arg, Ser20His, Ser22Thr (SPKMVQGSGCFGRQMERIRHSTGLGCKVLRRH; displayed on phagemid) [Q R H S T, measured as BNP-phagemid clone (Display BNP, K3D)] | 4.0
4 | G R R: BNP-phagemid clone of Table I (Display BNP, K3D); substitutions seem those of hBNP Arg13Gly, Lys14Arg, Ser19Arg | 1.6
5 | F W R: BNP-phagemid clone of Table I (Display BNP, K3D); substitutions as in hBNP Gly23Phe, Leu24Trp, Gly25Arg (SEQ ID NO:2) (SPKMVQGSGCFGRKMERISSSSFWRCKVLRRH; ends and bridges not checked; cysteine pairing not given here) | 0.8
6 | hBNP Lys14Asn, Ser19Arg, Ser20Asn, Ser21Thr (SPKMVQGSGCFGRNMERIRNTSGLGCKVLRRH; ends and bridges not checked; cysteine pairing not given here) [N R N T, measured as BNP-phagemid clone (Display BNP, K3D)] | 8.7
7 | hBNP Lys14Asn, Ser19Gly, Ser20Gly, Ser21Leu (SPKMVQGSGCFGRNMERIGGLSGLGCKVLRRH; ends and bridges not checked; cysteine pairing not given here) [N G G L, measured as BNP-phagemid clone (Display BNP, K3D)] | 3.9
8 | hBNP Lys14Asn, Ser19Gly, Ser20Arg, Ser21Ala (SPKMVQGSGCFGRNMERIGRASGLGCKVLRRH; ends and bridges not checked; cysteine pairing not given here) [N G R A, measured as BNP-phagemid clone (Display BNP, K3D)] | 4.8
9 | hBNP Lys14Asn, Ser19Arg, Ser20Gly (SPKMVQGSGCFGRNMERIRGSSGLGCKVLRRH; ends and bridges not checked; cysteine pairing not given here) [N R G, measured as BNP-phagemid clone (Display BNP, K3D)] | 3.9
10 | hBNP Lys14Asn, Ser19Arg, Ser20Thr, Ser21Lys (SPKMVQGSGCFGRNMERIRTKSGLGCKVLRRH; ends and bridges not checked; cysteine pairing not given here) [N R T K, measured as BNP-phagemid clone (Display BNP, K3D)] | 4.4
11 | hBNP Gly23Met, Leu24Trp, Gly25Arg [M W R] | 1.0
12 | hBNP Lys14Asn, Ser19Arg, Ser20Lys, Ser21Thr (SPKMVQGSGCFGRNMERIRKTSGLGCKVLRRH; ends and bridges not checked; cysteine pairing not given here) [N N K T, measured as BNP-phagemid clone (Display BNP, K3D)] | 4.2
13 | hBNP Lys14Asn, Ser19Gly, Ser20His, Ser21Leu (SPKMVQGSGCFGRNMERIGHLSGLGCKVLRRH; displayed on phagemid) [N G H L, measured as BNP-phagemid clone (Display BNP, K3D)] | 14.8
14 | hBNP Lys14Asn, Ser19Arg, Ser20Gly, Ser21Met (SPKMVQGSGCFGRNMERIRGMSGLGCKVLRRH; ends and bridges not checked; cysteine pairing not given here) [N R G M, measured as BNP-phagemid clone (Display BNP, K3D)] | 2.9
15 | hBNP Lys14Asn, Ser19Arg (SPKMVQGSGCFGRNMERIRSSSGLGCKVLRRH; ends and bridges not checked; cysteine pairing not given here) [N R, measured as BNP-phagemid clone (Display BNP, K3D)] | 3.5
16 | hBNP Lys14Asn, Ser19Arg, Ser21Trp [N R S W] | 4.4
17 | hBNP Lys14Asn, Ser19Ala, Ser20Arg, Ser21Glu (SPKMVQGSGCFGRNMERIARESGLGCKVLRRH; ends and bridges not checked; cysteine pairing not given here) [N A R E, measured as BNP-phagemid clone (Display BNP, K3D)] | 1.3
18 | hBNP Gly23Met, Leu24Tyr, Gly25Arg (SPKMVQGSGCFGRKMERISSSSMYRCKVLRRH; ends and bridges not checked; cysteine pairing not given here) [M Y R, measured as BNP-phagemid clone (Display BNP, K3D)] | 2.4
19 | hBNP Gly23Met, Leu24Phe, Gly25Arg (SPKMVQGSGCFGRKMERISSSSMFRCKVLRRH; ends and bridges not checked; cysteine pairing not given here) [M F R, measured as BNP-phagemid clone (Display BNP, K3D)] | 3.0
20 | hBNP Lys14Thr, Ser19Arg, Ser20His, Ser21Gly, Ser22Gly (SPKMVQGSGCFGRTMERIRHGGGLGCKVLRRH; displayed on phagemid) [T R H G H, measured as BNP-phagemid clone (Display BNP, K3D)] | 5.0

Target: T1, NPR-C (Homo sapiens, UniProt P17342)
T1 construct: expressed in transfected cells
T1 sequence (P17342 27-541): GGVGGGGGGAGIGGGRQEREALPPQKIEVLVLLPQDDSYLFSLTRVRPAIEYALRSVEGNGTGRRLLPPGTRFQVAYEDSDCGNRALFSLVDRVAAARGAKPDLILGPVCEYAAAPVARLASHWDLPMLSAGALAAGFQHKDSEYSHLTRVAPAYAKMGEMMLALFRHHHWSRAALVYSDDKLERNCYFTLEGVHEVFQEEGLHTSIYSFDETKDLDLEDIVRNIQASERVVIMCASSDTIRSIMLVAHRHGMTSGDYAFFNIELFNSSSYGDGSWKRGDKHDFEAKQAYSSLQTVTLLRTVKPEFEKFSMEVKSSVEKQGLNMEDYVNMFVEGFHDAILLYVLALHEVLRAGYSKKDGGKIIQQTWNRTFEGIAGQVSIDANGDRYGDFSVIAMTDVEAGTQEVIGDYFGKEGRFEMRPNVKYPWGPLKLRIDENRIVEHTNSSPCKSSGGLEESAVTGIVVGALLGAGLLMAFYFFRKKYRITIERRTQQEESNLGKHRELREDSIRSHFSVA
Assay: Measurement of binding affinities for NPR-C, membranes from stable 293 cell lines, 125I rat ANP displacement
Design: unit not given here
Details: pure synthetic peptide vs 30 pM 125I rat ANP, 2 hours room temperature; duplicate points, three separate assays
Protocol: Membrane Preparation Membranes from stable 293 cell lines expressing NPR-A (Lowe and Fendly (1992) J. Biol. Chem.) or NPR-C (Cunningham et al. (1994) supra) were prepared by removing the cells from tissue culture plates with 0.5MM EDTA in PBS, centrifuging at 225×g, 4° C., and resuspending in 50 mM Hepes Ph7.4, 1 mM EDTA, 1 mM DTT, 250 mM Sucrose, 0.7 μg/ml Pepstatin A, 0.5 μg/ml Leupeptin, 1 mM PMSF, 1 μM Phosphoramidon. The resuspended cells were homogenized for 30 seconds with a Brinkman polytron on setting 5. The homogenate was centrifuged in 30 ml corex tubes in Sorval HB-4 rotor at 400×(1500 rpm) for 10 minutes at 4° C. The supernatant was centrifuged again in screw cap polycarbonate tubes (Beckman 355618) at 100,000×g (31,500 rpm) for 30 minutes, 4° C. in a Beckman TI60 rotor. The pellet was resuspended in 50 mM Hepes, 0.1 mM EDTA, 5.0 mM MgCl2, 100 mM NaCl, 0.7μg/ml Pepstatin A, 0.5 μg/ml Leupeptin, 1 mM PMSF, 1 μM Phosphoramidon and homogenized again with 15 strokes in a Dounce homogenizer (Wheaton 7 ml, #357542). The membranes were passed through a 22 gauge needle several times before aliquoting into eppendorf tubes for storage at -80° C.
The binding was allowed to go for 2 hours at room temperature in 96 well U-bottomed microtiter polypropylene plates (Sigma M-4029) with gentle agitation. The bound hormone was separated from the free using a Packard Filtermate 196 cell harvester and 1% polyethyleneimine-saturated Packard unifilter-96 GF/B plates by vacuum filtration. The plates were dried under vacuum chamber for 10 minutes prior to adding 40 μl Microscint-20 scintillant and counting in a Packard Topcount scintillation counter. Each affinity represents points measured in duplicate within three separate assays.

Row | Substance | NPR-C binding affinity (Assay #1)
21 | hBNP Arg13Gly, Lys14Arg, Ser19Arg (SPKMVQGSGCFGGRMDRIRSSSGLGCKVLRRH) | 28,370 ± 9,654
22 | hANP Gly16Arg [reference compound] | 10,601 ± 1271

Target: human natriuretic peptide receptor-A expressed in 293 cells (human) (UniProt P16066)
Assay: competition with 30 pM 125I-rat ANP on membranes of 293 cells expressing NPR-A; unit not given
Details: not given

Row | Substance | affinity (NPR-A)
23 | hBNP (SEQ ID NO: 1) (peptide) | 645

Target: T2, NPR-C expressed in stable 293 cell lines (membranes) (human) (UniProt P17342)
T2 sequence: T1 sequence (P17342 27-541)
Assay: competition with 30 pM 125I-rat ANP on membranes of 293 cells expressing NPR-C; unit not given
Details: not given

Row | Substance | affinity (NPR-C)
24 | hBNP (SEQ ID NO: 1) (peptide) | 1790
